Results on 13 molecules are retold here after patent publication US20250122298A1 (OSSIANIX, published 2025).

The target in assay [1] is T1, recombinant human TfR-1 (human, UniProt P02786 89-760, limits assumed).
T1 construct: also called hTfR-1; hTfR1
In words: ELISA on coated hTfR1, crude ExpiHEK expression media, normalised to TXP1. The procedure: FIG. 6. Expression level and hTfR1 binding of 20 single-region variants of TXP1 measured by ELISA. Variants were designed to remove potential MHCII binding motifs in each region separately with the mutations described in Table 5. Each deimmunized variant was transiently expressed in 0.5 ml scale in ExpiHEK cells and the crude media were tested by ELISA for hTfRIbinding and expression level in comparison to parental TXP1. The data were normalized to TXP1 and the variants with binding or expression >0.5-fold were evaluated further.
Mutating the primary anchoring residue in each MHCII binding motif was prioritized to minimize manipulation of the sequence with maximal reduction in binding score. Alternative positions were also considered when replacement of an anchor residue might disrupt the protein structure or where removing the anchor residue was insufficient to eliminate MHCII binding. Based on the in silico analyses, 20 single-region deimmunized variants of TXP1 (6 in region 1, 10 in region 2, and 4 in region 3) were genetically synthesized and evaluated (Table 5). Expression and hTfR1 binding were measured in crude media from transfected ExpiHEK cells (FIG. 6). […] Region 3 required all three substitutions to eliminate predicted MHCII binding, and all three mutations individually and when combined (TXP1-R3-1-4) were expressed well and retained parental levels of TfR-1 binding.
In general terms: An ELISA detects its analyte on a solid surface through an enzyme-linked reagent.

For assay [2], the target named is T2, recombinant cynomolgus TfR-1 (cynomolgus, UniProt H9EXL1 89-760 (rhesus entry)).
T2 construct: also called cTfR-1; cTfR1
In words: SPR Biacore T200, multi-cycle kinetics, 1:1 model. On the technique in general: In SPR one partner is held on a chip, and binding of the other changes the refractive index at the surface.

Assay [3] has as its target T2, recombinant cynomolgus TfR-1. Kind of assay: ELISA, plate-coated recombinant cTfR1, anti-hFc HRP detection. On the procedure:
(§1) TfR1 ELISA. Nunc MaxiSorp plates were coated with 100 ul of 1 μg/ml of in-house purified recombinant human, cynomolgus TfR1 or HSA and incubated at 4° C. overnight. Plates were incubated with blocking buffer (2.5% non-fat dry milk in PBST) for 1 hr at RT. Serial dilutions of TXP1, TXPID1 or TXP1D4 were mixed with non-fat dry milk in PBST to a final concentration of 2.5% and incubated for 30 min. Blocked VNAR antibody solutions (100 μl) were transferred to the blocked plates and incubated for 1 hr. Plates were washed with PBST and incubated with anti-hFc HRP-conjugated antibody diluted 1:5,000 (Sigma) in blocking buffer for 30 min. Plates were washed and developed with SureBlue TMB substrate. Were indicated the velocity of colorimetric reaction development was measured in the kinetic mode at 370 nm and the maximum peak was used for quantitation (Vmax at 370 nm). Alternatively, the TMB reaction was stopped with 1% HCl and absorbance was measured at 450 nm (OD at 450 nm).

Assay [4] concerns the target T1, recombinant human TfR-1. In words: ELISA, plate-coated recombinant hTfR1, anti-hFc HRP detection. The procedure:
as §1

Assay [5] has as its target T1, recombinant human TfR-1. Kind of assay: SPR Biacore T200, His-tagged TfR1 captured by anti-His, multi-cycle kinetics, 1:1 model. On the procedure: Binding kinetics. Binding kinetics of TXP1, TXP1D1 and TXP1D4 were determined by surface plasmon resonance (SPR) using a Biacore T200 (GE Healthcare). A His-capture kit (GE Healthcare) was used to immobilize anti-His antibodies on CM5 chips (as recommended by the manufacturer). His-tagged recombinant hTfR1 in 0.1% BSA in HBS-EP+ buffer (GE Healthcare) was captured at flow rate 10 μl/min. Analyte binding was measured using the multi-cycle kinetic SPR method. Starting analyte concentrations at 400 nM and serially diluted in 1:4 in seven steps. Association and dissociation were measured for 360s and 1500s respectively, with flow rate at 30 μl/min. The chips were regenerated in 10 mM Glycine-HCl, pH 1.5. Sensorgrams were fitted using 1:1 binding model and kinetic constants determined using Biacore T200 Evaluation software (Cytiva).

The target in assay [6] is T3, cell surface human TfR1 on hCMEC/D3 and SH-SY5Y cells (human, UniProt P02786 1-760).
T3 construct: whole, on cells; Endogenous receptor on the cell lines; also called cell surface TfR1; cell-surface hTfR1
In words: flow cytometry on hCMEC/D3 cells on ice, binding to cell surface TfR1, anti-hFc Alexa647. On the procedure: Functional activity of the fully deimmunized variants was assessed using the hCMEC/D3 human endothelial cell line and the SY-SH5Y human neuronal cell line. Binding to hCMEC/D3 cells was assessed by incubation with serial antibody dilutions for 1h on ice to avoid internalization. The cells were fixed and binding to cell surface TfR1 was measured by flow cytometry. […] Internalization via cell-surface hTfR1 was assessed using the hCMEC/D3 and SY-SH5Y cell lines by incubation with the antibodies for 1 hour at 37° C.
Flow cytometry. hCMEC/D3 cells were seeded onto V-bottom 96-well plates at a density of 1×10⁴ cells/well. All incubations were carried out on ice to prevent internalization. After blocking in PBS containing 10% BSA (FACS buffer), cells were incubated with serial dilutions of TXP1. Cells were stained with propidium iodine (PI; Biolegend) for 20 min, followed by anti-hFc conjugated to Alexa647 diluted 1:300 (Jackson ImmunoResearch) for 30 min. After fixation in 4% PFA for 15 min, the cells were analyzed on a CytoFlex flow cytometer (Beckman Coulter). Gating of cells stained with secondary antibody alone was used to set the negative threshold for and the fluorescence intensity of approximately 1000 cells per condition was measured. EC50 values were calculated using a four parametric non-linear regression model.
(In general: In flow cytometry, cells or beads pass a laser one at a time.)

T1 sequence (P02786 89-760 limits assumed): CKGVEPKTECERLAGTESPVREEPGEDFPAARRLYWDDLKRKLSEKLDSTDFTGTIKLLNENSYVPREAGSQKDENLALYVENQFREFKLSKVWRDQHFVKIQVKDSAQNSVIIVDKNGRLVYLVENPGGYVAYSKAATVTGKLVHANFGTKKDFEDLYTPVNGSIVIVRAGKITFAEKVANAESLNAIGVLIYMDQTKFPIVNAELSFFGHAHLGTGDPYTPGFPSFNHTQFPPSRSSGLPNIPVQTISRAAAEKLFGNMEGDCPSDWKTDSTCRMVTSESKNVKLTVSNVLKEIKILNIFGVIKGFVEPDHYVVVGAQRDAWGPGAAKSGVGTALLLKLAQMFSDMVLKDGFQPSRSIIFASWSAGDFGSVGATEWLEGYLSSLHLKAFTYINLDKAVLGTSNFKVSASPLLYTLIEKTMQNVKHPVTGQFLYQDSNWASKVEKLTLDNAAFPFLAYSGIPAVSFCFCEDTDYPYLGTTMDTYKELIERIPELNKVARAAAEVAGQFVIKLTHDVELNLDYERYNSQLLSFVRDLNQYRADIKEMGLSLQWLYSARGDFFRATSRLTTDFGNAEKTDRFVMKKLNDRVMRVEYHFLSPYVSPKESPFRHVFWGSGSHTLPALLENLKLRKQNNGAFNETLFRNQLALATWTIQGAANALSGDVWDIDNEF
T2 sequence (chain, as listed by the source): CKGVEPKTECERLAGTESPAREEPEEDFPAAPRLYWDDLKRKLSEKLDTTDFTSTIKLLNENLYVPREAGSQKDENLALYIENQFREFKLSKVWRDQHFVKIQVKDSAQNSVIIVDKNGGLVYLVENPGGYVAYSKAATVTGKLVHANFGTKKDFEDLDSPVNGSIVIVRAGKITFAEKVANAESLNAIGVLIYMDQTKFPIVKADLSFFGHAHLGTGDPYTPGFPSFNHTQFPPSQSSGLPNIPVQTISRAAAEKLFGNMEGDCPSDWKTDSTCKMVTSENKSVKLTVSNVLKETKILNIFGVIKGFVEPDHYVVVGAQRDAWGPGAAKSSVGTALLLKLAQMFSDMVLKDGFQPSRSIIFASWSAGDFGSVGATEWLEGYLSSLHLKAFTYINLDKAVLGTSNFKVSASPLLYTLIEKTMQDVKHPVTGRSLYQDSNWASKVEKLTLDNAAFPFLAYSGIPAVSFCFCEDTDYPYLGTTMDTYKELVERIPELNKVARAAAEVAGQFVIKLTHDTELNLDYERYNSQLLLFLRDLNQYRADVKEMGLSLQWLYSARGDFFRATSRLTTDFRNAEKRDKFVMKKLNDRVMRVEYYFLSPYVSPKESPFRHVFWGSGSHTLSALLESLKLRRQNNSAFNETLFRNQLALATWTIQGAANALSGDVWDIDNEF
T3 sequence (P02786 whole entry): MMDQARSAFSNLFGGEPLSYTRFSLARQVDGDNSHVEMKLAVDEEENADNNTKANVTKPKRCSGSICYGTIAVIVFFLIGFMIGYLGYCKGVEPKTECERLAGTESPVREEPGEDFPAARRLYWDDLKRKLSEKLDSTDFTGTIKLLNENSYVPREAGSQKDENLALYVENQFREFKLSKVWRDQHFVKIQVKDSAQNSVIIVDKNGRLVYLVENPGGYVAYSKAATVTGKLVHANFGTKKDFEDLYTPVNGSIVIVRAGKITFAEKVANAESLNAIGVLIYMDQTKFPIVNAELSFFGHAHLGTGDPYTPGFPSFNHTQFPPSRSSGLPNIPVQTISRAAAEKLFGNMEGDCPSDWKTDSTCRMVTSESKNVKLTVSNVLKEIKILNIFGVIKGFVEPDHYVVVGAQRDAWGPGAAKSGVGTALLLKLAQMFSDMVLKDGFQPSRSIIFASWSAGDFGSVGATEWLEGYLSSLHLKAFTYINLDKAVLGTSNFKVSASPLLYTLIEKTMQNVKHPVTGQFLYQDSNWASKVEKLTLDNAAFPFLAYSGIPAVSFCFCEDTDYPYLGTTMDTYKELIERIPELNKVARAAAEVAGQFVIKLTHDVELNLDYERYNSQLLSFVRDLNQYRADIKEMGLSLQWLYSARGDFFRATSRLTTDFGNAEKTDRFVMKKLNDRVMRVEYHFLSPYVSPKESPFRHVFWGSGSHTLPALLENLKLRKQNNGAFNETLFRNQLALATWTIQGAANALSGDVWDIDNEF

B1: TXP1-R1-1 (Fc fusion)
chain: ARVDQTPQTATKETGESLTINCVLRDSNCALSSTYWYRKKSGSTNEENISKGGRYVETVNSGSKSFSLKINDLTVEDSGTYRCNVVGTWCMSWRDVYGGGTAVTVNA
notes: Single-region variant of TXP1; tested in crude expression media; not shown: human IgG1 Fc (hFc) with AEF mutations incl. deletion of G236 (printed AG236)
As to B1, the “hTfR1 binding relative to parental TXP1 (fold)” value in assay [1] was found to be 0.5 fold.

B2: TXP1D1 (Fc fusion)
chain: ARVDQTPQTATKETGESLTINCVLRDSNCALSSTYWYRKKSGSTNEENISKGGRYVETVDSGTKSFSLKINDLTVEDSGTYRCNVVGTWCMSWRDVSGDGTVVTVNA
notes: Fully deimmunized variant of TXP1, VNAR-hFc format; also called TXPID1; not shown: human IgG1 Fc (hFc) with AEF mutations incl. deletion of G236 (printed AG236)
In the case of B2, the Kd was 2.2 nM in assay [2] and 4.6 nM in assay [5]. For the same molecule, the results for the koff in assay [2] and in assay [5] were 0.00016 s⁻¹ and 0.00031 s⁻¹, respectively. Besides, the values for the kon in assay [2] and in assay [5] were 73000 M⁻¹ s⁻¹ and 67000 M⁻¹ s⁻¹, respectively. The EC50 in assay [3] was found to be 2.2 nM; in assay [4], 3.5 nM; in assay [6], 1.6 nM.

B3: TXP1-R2-10 (Fc fusion)
chain: ARVDQTPQTITKETGESLTINCVLRDSNCALSSTYWYRKKSGSTNEENISKGGKYVETVQSGSKSFSLKINDLTVEDSGTYRCNVVGTWCMSWRDVYGGGTAVTVNA
notes: as for B1
As for B3, the “hTfR1 binding relative to parental TXP1 (fold)” value in assay [1] stood at 0.5 fold.

B4: TXP1-R2-9 (Fc fusion)
chain: ARVDQTPQTITKETGESLTINCVLRDSNCALSSTYWYRKKSGSTNEENISKGGKYVETVESGSKSFSLKINDLTVEDSGTYRCNVVGTWCMSWRDVYGGGTAVTVNA
notes: as for B1
B4: the “hTfR1 binding relative to parental TXP1 (fold)” value in assay [1] came to 0.5 fold.

B5: TXP1-R2-6 (Fc fusion)
chain: ARVDQTPQTITKETGESLTINCVLRDSNCALSSTYWYRKKSGSTNEENISKGGRYVETVDSGTKSFSLKINDLTVEDSGTYRCNVVGTWCMSWRDVYGGGTAVTVNA
notes: as for B1
For the molecule B5, the “hTfR1 binding relative to parental TXP1 (fold)” value in assay [1] came out at 0.5 fold.

B6: TXP1-R2-3 (Fc fusion)
chain: ARVDQTPQTITKETGESLTINCVLRDSNCALSSTYWYRKKSGSTNEENISKGGRNVETVNSGSKSFSLKINDLTVEDSGTYRCNVVGTWCMSWRDVYGGGTAVTVNA
notes: as for B1
Turning to B6, the “hTfR1 binding relative to parental TXP1 (fold)” value in assay [1] was determined as 0.5 fold.

B7: TXP1-R2-2 (Fc fusion)
chain: ARVDQTPQTITKETGESLTINCVLRDSNCALSSTYWYRKKSGSTNEENISKGGRHVETVNSGSKSFSLKINDLTVEDSGTYRCNVVGTWCMSWRDVYGGGTAVTVNA
notes: as for B1
For the molecule B7, the “hTfR1 binding relative to parental TXP1 (fold)” value in assay [1] came out at 0.5 fold.

B8: TXP1-R1-2 (Fc fusion)
chain: ARVDQTPQTETKETGESLTINCVLRDSNCALSSTYWYRKKSGSTNEENISKGGRYVETVNSGSKSFSLKINDLTVEDSGTYRCNVVGTWCMSWRDVYGGGTAVTVNA
notes: as for B1
In the case of B8, the “hTfR1 binding relative to parental TXP1 (fold)” value in assay [1] is 0.5 fold.

B9: TXP1-R2-4 (Fc fusion)
chain: ARVDQTPQTITKETGESLTINCVLRDSNCALSSTYWYRKKSGSTNEENISKGGRSVETVNSGSKSFSLKINDLTVEDSGTYRCNVVGTWCMSWRDVYGGGTAVTVNA
notes: as for B1
As for B9, the “hTfR1 binding relative to parental TXP1 (fold)” value in assay [1] was 0.5 fold.

B10: TXP1-R1-4 (Fc fusion)
chain: ARVDQTPQTTTKETGESLTINCVLRDSNCALSSTYWYRKKSGSTNEENISKGGRYVETVNSGSKSFSLKINDLTVEDSGTYRCNVVGTWCMSWRDVYGGGTAVTVNA
notes: as for B1
For the molecule B10, the “hTfR1 binding relative to parental TXP1 (fold)” value in assay [1] was 0.5 fold.

B11: TXP1D4 (Fc fusion)
chain: ARVDQTPQTATKETGESLTINCVLRDSNCALSSTYWYRKKSGSTNEENISKGGKYVETVESGSKSFSLKINDLTVEDSGTYRCNVVGTWCMSWRDVSGDGTVVTVNA
notes: Fully deimmunized variant of TXP1, VNAR-hFc format; also called TXPID4; not shown: human IgG1 Fc (hFc) with AEF mutations incl. deletion of G236 (printed AG236)
For B11, the Kd was found to be 1.7 nM in assay [2] and 3 nM in assay [5]. Besides, the koff in assay [2] came to 0.00014 s⁻¹; in assay [5] it was 0.00026 s⁻¹. The kon in assay [2] and in assay [5] was 87000 M⁻¹ s⁻¹ throughout. The EC50 is 3 nM in assay [3], 4.1 nM in assay [4] and 2.1 nM in assay [6].

B12: TXP1-R1-3 (Fc fusion)
chain: ARVDQTPQTSTKETGESLTINCVLRDSNCALSSTYWYRKKSGSTNEENISKGGRYVETVNSGSKSFSLKINDLTVEDSGTYRCNVVGTWCMSWRDVYGGGTAVTVNA
notes: as for B1
On to B12, for which the “hTfR1 binding relative to parental TXP1 (fold)” value in assay [1] amounted to 0.5 fold.

B13: TXP1-R2-5 (Fc fusion)
chain: ARVDQTPQTITKETGESLTINCVLRDSNCALSSTYWYRKKSGSTNEENISKGGRTVETVNSGSKSFSLKINDLTVEDSGTYRCNVVGTWCMSWRDVYGGGTAVTVNA
notes: as for B1
Consider B13, for which the “hTfR1 binding relative to parental TXP1 (fold)” value in assay [1] is 0.5 fold.

The term Kd denotes the free concentration of one partner at which half of the binding sites on the other are occupied at equilibrium, for simple one-to-one binding. Usually koff stands for a measure of how fast the partners let go of each other. For orientation: kon means a measure of how fast the partners come together. A word on the EC50: it is the concentration needed to bring the measured effect to its halfway point.
